Experimental data from US20140249091A1 (BIOUSIAN BIOSYSTEMS, published 2014).
Read-outs that look alike come from different tables or passages of the source. Non-standard residues stand in square brackets, D forms with d. *: point of attachment. βGlc = OC[C@H]1O[C@@H](*)[C@H](O)[C@@H](O)[C@@H]1O; Nle = CCCC[C@H](N)C(=O)O; Nva = CCC[C@H](N)C(=O)O

Legend:
[1] = molecular target: T1, human mu opioid receptor (human, UniProt P35372 1-400); assay: competition vs [3H]DAMGO, hMOR CHO cell membranes (summary table)
T1 construct: whole, on cells; Assayed as CHO cell membranes; also called hMOR; MOR

[2] = molecular target: T1, human mu opioid receptor; assay: cell-based or functional assay
[3] = molecular target: T2, human delta opioid receptor (human, UniProt P41143 1-372); assay: cell-based or functional assay
[4] = molecular target: T2, human delta opioid receptor; assay: competition vs 0.2 nM [3H]naltrindole, hDOR CHO cell membranes
[5] = molecular target: T2, human delta opioid receptor; assay: radioligand competition; reference hMOR
[6] = molecular target: human kappa opioid receptor (human) (UniProt P41145); assay: inhibition of [3H]U69,593 binding at 10 uM peptide, hKOR CHO cell membranes
[7] = molecular target: T1, human mu opioid receptor; assay: competition vs 0.25 nM [3H]DAMGO, hMOR CHO cell membranes
[8] = molecular target: T2, human delta opioid receptor; assay: competition vs [3H]naltrindole, hDOR CHO cell membranes (summary table)
[9] = molecular target: T2, human delta opioid receptor; assay: competition vs [3H]naltrindole, hDOR CHO cell membranes; reference DPDPE
[10] = molecular target: T1, human mu opioid receptor; assay: competition vs 0.25 nM [3H]DAMGO, hMOR CHO cell membranes; remark: listed apart in the source
[11] = molecular target: human kappa opioid receptor (human) (UniProt P41145); assay: inhibition of [3H]U69,593 binding at 10 uM peptide, hKOR CHO cell membranes; remark: listed apart in the source
[12] = molecular target: T2, human delta opioid receptor; assay: competition vs 0.2 nM [3H]naltrindole, hDOR CHO cell membranes; remark: listed apart in the source

T2 sequence (P41143 whole entry, stated change not applied): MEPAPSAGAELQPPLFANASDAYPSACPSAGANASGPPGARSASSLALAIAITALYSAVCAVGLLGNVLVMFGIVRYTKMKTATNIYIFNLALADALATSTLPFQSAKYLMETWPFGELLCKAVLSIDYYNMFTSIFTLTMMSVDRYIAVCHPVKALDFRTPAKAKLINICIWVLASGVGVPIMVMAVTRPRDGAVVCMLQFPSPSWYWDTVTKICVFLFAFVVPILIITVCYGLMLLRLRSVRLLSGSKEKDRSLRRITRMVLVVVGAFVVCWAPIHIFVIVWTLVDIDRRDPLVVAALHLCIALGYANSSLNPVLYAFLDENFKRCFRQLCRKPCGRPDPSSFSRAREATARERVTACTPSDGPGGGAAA
T1 sequence (P35372 whole entry): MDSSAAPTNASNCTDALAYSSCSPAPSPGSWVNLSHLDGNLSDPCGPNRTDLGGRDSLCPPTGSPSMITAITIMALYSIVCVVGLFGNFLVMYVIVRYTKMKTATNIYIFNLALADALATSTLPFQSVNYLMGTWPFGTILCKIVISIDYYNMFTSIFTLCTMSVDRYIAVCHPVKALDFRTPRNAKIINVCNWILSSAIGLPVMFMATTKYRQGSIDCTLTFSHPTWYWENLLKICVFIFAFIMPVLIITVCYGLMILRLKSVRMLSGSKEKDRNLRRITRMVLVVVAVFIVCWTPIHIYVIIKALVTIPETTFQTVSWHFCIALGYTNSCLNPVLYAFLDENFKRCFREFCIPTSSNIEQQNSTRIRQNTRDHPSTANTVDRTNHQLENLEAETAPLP
Chain of human kappa opioid receptor (human) (P41145 whole entry): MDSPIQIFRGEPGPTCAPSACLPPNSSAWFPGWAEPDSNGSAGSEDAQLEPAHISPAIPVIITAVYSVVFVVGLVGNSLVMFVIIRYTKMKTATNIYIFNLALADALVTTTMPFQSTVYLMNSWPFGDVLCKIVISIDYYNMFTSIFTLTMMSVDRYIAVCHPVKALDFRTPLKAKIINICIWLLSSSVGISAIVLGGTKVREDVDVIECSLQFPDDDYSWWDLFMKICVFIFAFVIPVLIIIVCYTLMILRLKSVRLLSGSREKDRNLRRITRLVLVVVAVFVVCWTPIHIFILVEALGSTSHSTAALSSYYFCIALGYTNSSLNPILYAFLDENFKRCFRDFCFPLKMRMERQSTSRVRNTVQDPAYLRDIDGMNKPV

## DPDPE (peptide)
[1]
  Ki: 180 nM

## 11009 (H2N-YaFE-Nle-Nle-T-amide) (peptide)
[2]
  EMax (%), agonist properties, [35S]GTPγS binding: 42%
[3]
  EC50 (nM), agonist properties, [35S]GTPγS binding: 12 nM
  EMax (%), agonist properties, [35S]GTPγS binding: 67%

B1: 11005 = Deltorphin B1, H2N-YaFE-Nva-Nva-S(beta-D-Glc)-amide (peptide)
peptide: H-Y[dA]FE[Nva][Nva]S(βGlc)-NH2
SMILES: CCC[C@H](NC(=O)[C@H](CCC)NC(=O)[C@H](CCC(=O)O)NC(=O)[C@H](Cc1ccccc1)NC(=O)[C@@H](C)NC(=O)[C@@H](N)Cc1ccc(O)cc1)C(=O)N[C@@H](CO[C@@H]1O[C@H](CO)[C@@H](O)[C@H](O)[C@H]1O)C(N)=O
notes: also called glycopeptide 11005
[4]
  IC50: 61 nM
  Ki: 20 nM
[1]
  Ki: 710 nM
[5]
  Selectivity Delta:Mu: 36 fold (Ki mu over Ki delta)
[6]
  Max Inhib at 10 uM (%): 5.3%
[7]
  IC50: 1000 nM
  Ki: 710 nM
[8]
  Ki: 20 nM

B2: 11008 = Deltorphin B4, H2N-YaFE-Nle-Nle-T(beta-D-Glc)-amide (peptide)
peptide: H-Y[dA]FE[Nle][Nle]T(βGlc)-NH2
SMILES: CCCC[C@H](NC(=O)[C@H](CCC(=O)O)NC(=O)[C@H](Cc1ccccc1)NC(=O)[C@@H](C)NC(=O)[C@@H](N)Cc1ccc(O)cc1)C(=O)N[C@@H](CCCC)C(=O)N[C@H](C(N)=O)[C@@H](C)O[C@@H]1O[C@H](CO)[C@@H](O)[C@H](O)[C@H]1O
[1]
  Ki: 1100 nM
[9]
  fold lower affinity than DPDPE: ~3 fold
[10]
  IC50: 1500 nM
  Ki: 1100 nM
[11]
  Max Inhib at 10 uM (%): 2.9%
[12]
  IC50: 42 nM
  Ki: 14 nM
[3]
  EC50 (nM), agonist properties, [35S]GTPγS binding: 12 nM
[5]
  Selectivity Delta:Mu: 79 fold (Ki mu over Ki delta)
[8]
  Ki: 14 nM
